Several values for one entry are separate records, joined by “and”; a condition that tells them apart may be missing. Identical values can stand only once.
Key:
[1] = target: GARPTS, soluble tail switch mutant of human GARP (glycoprotein A repetitions predominant) (human) (UniProt Q14392); assay: non-reducing SDS-PAGE and western blot of disulfide-linked complexes; GARPTS (300 ng) and a mixture of pro-TGFβ and latent TGFβ (600 ng) incubated overnight at RT in redox buffer (oxidized glutathione and 2 mM free cysteine), no pull-down; 10% gel, non-reducing; anti-Strep-tag or anti-His-tag antibodies
[2] = target: GARPTS, soluble tail switch mutant of human GARP (glycoprotein A repetitions predominant) (human) (UniProt Q14392)

Row | stoichiometry N (GARP per TGFβ) [1] | proliferation of Mv1Lu cells with a constant 60 ng/ml latent TGFβ pre-incubated with 10-40 ng/ml GARPTS; value at approximately 40 ng/ml (0.5 nM) GARPTS [2] | Substance
1 | 2 and 1 | – | recombinant pro-TGFβ (not cleaved by furin) (natural protein)
2 | 2 and 1 | < 60% | recombinant latent TGFβ (furin-cleaved pro-TGFβ; LAP non-covalently bound to the mature cytokine) (complex)
